Measured values as given in the supplement of paper PMC10126150.
± gives the standard deviation of the averaged measurements.

System: ATP
Assay: switch fluorescence ratio, 500 uM ATP over buffer (Cy3 cluster intensity, sum of 5 cycles each) (fold (ratio)); higher = stronger signal-on switching upon ATP binding; sequences stand for … in TCGTCGGCAGCGTCAGATGTGTATAAGAGACAGTTTTTTTTTTTTTTTTTTTTTTTTT…TC
Settings: aptamer strand: ATP DNA aptamer (quencher-CACCTGGGGGAGTATTGCGGAGGAAGG + anchor), 100 nM annealed; ATP concentration: 500 uM
How it was run: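 The fluorescence ratio divides summed target-cycle Cy3 intensity by summed buffer-cycle Cy3 intensity for each cluster and is averaged per switch-domain sequence. Cy3-labelled switching-strand clusters on a modified Illumina MiSeq flow-cell were annealed to 100 nM quencher-labelled ATP aptamer, then imaged in selection buffer and again after 15 min with 500 uM ATP at 22 °C. Five such cycles were run, with NaOH stripping and re-annealing between them, and clusters outside 100-1000 RFU were excluded.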
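Further: ATP exposure 15 min at 22 °C before imaging.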

Sequence | switch fluorescence ratio
TTAAGTGGGT | 0.979 ± 0.061
TTAAGTGGTT | 0.998 ± 0.011
TTAAGTTCAT | 0.9806 ± 0.0067
TTAAGTTGCA | 1.05 ± 0.028
TTAATAAAAT | 0.966 ± 0.018
TTAATATGTA | 0.9897 ± 0.0074
TTAATATTAT | 0.978 ± 0.013
TTAATCAATG | 0.998 ± 0.029
TTAATCATAG | 1 ± 0.066
TTAATCGTTA | 1.01 ± 0.011
TTAATGACTT | 1.02 ± 0.058
TTAATGATGG | 1.012 ± 0.0075
TTAATGCAAC | 1.01 ± 0.021
TTAATGGCTA | 0.976 ± 0.021
TTAATGGGA | 0.995 ± 0.011
TTAATGGGAT | 0.987 ± 0.021
TTAATGTGAT | 1 ± 0.012
TTAATTAAAC | 1.013 ± 0.0035
TTAATTAACG | 0.995 ± 0.023
TTAATTCGTC | 0.949 ± 0.021
TTAATTGGCC | 0.992 ± 0.055
TTAATTGGGA | 0.9897 ± 0.0028
TTAATTGGGC | 1.03 ± 0.069
TTAATTTCGG | 0.991 ± 0.065
TTAATTTGAG | 0.986 ± 0.03

Sequence | switch fluorescence ratio
TTAATTTTTG | 0.996 ± 0.029
TTACAAGACG | 1.032 ± 0.0049
TTACAAGGGA | 1.09 ± 0.18
TTACAATATT | 1.07 ± 0.03
TTACAATTTG | 1.01 ± 0.039
TTACACGATA | 1.32 ± 0.15
TTACAGCTGA | 1.01 ± 0.016
TTACAGGCCT | 1.05 ± 0.056
TTACAGGGGC | 1.11 ± 0.061
TTACATAGGG | 1.019 ± 0.0079
TTACATAGTA | 1.06 ± 0.071
TTACATATGG | 1.024 ± 0.0032
TTACATTTTG | 1.01 ± 0.026
TTACCAGCTT | 1.02 ± 0.063
TTACCAGTTG | 1.04 ± 0.031
TTACCCATGG | 0.937 ± 0.064
TTACCCCGAA | 1.026 ± 0.0067
TTACCGGATA | 1.035 ± 0.0092
TTACCGGGAG | 1.05 ± 0.013
TTACCGGTAG | 0.993 ± 0.059
TTACCGTACG | 1.45 ± 0.11
TTACCGTGCC | 1.27 ± 0.059
TTACCTCATT | 1.02 ± 0.015
TTACCTGGGG | 1.03 ± 0.038
TTACCTTTTT | 1.02 ± 0.013

Sequence | switch fluorescence ratio
TTACGAAGGG | 1.012 ± 0.0045
TTACGACCGG | 1.01 ± 0.032
TTACGGAGGC | 1.0641 ± 5.8e-05
TTACGGAT | 1.06 ± 0.019
TTACGGATGT | 1.02 ± 0.012
TTACGGCAGG | 1.13 ± 0.092
TTACGGCCAA | 1.26 ± 0.31
TTACGGCCGA | 1.02 ± 0.026
TTACGGGGAG | 1 ± 0.034
TTACGGGTAG | 1.02 ± 0.0088
TTACGGTGCC | 0.987 ± 0.03
TTACGGTTGC | 0.9665 ± 0.0024
TTACGTTTC | 1 ± 0.034
TTACGTTTTG | 1.13 ± 0.29
TTACTATTCT | 1.001 ± 0.0063
TTACTATTTT | 1.03 ± 0.023
TTACTCCTTT | 1 ± 0.017
TTACTCGACG | 1.06 ± 0.022
TTACTCGTCA | 0.989 ± 0.011
TTACTCGTCT | 1.08 ± 0.056
TTACTCTATA | 1.06 ± 0.016
TTACTGGCT | 1 ± 0.059
TTACTGGGGT | 1.02 ± 0.021
TTACTTCTTT | 0.976 ± 0.027
TTACTTGAGG | 1.11 ± 0.13

Sequence | switch fluorescence ratio
TTACTTGGCC | 0.9818 ± 0.0021
TTAGAAACGC | 1.02 ± 0.04
TTAGAAAGGG | 0.977 ± 0.029
TTAGAATACG | 1 ± 0.045
TTAGACATTA | 1.02 ± 0.018
TTAGACGCGG | 0.98 ± 0.036
TTAGACGGGG | 1 ± 0.034
TTAGAGACGT | 1.03 ± 0.027
TTAGAGACTG | 1.08 ± 0.11
TTAGAGAGGC | 0.961 ± 0.054
TTAGAGAGGT | 0.988 ± 0.03
TTAGAGCTTT | 0.975 ± 0.021
TTAGAGGAAC | 0.965 ± 0.028
TTAGAGGCAT | 1.05 ± 0.066
TTAGAGGCGT | 1.006 ± 0.0053
TTAGATACCA | 1.03 ± 0.039
TTAGATGCGG | 1.013 ± 0.01
TTAGCAACGA | 1.09 ± 0.039
TTAGCATGTT | 1 ± 0.022
TTAGCATTAG | 1.23 ± 0.04
TTAGCCGGGT | 0.9802 ± 0.0028
TTAGCCGTTG | 1.03 ± 0.015
TTAGCGAGGT | 1.02 ± 0.032
TTAGCGGGGG | 1.03 ± 0.06
TTAGCTCTA | 1.012 ± 0.0054
